Laboratory results reported in the supplement of paper PMC12783771.
± gives the standard deviation of the averaged measurements.

B1: library; numbered along this chain (parent)
chain: MNIQIGELAKRTACPVVTIRFYEQEGLLPPPGRSRGNFRLYGEEHVERLQFIRHCRSLDMPLSDVRTLLSYRKRPDQDCGEVNMLLDEHIRQVESRIGALLELKHHLVELREACSGARPAQSCGILQGLSDCVCDTRGTTAHPSD

Tests used:
[1] = variants of: B1; assay: sfGFP reporter fluorescence (15 h) (µM FITC); higher = higher leak; conditions: library round: Round 0; ligand: none
Protocol: (§1)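 Cell-free (BL21 Star DE3 extract, PANOx-SP) biosensing: 1 µL Echo-assembled reactions with linear PbrR variant templates (5 nM) and pPbrR-sfGFP reporter, with 1 µM Pb (lead chloride), 30 µM Zn (zinc acetate) or no ligand; endpoint sfGFP fluorescence after 15 h at 30 °C, calibrated as µM FITC. Round 0 library (alanine scan, site saturation, combinatorial) of PbrR from Cupriavidus metallidurans; 2 biological replicates.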

[2] = variants of: B1; assay: sfGFP reporter fluorescence (15 h) (µM FITC); higher = stronger transcriptional activation; conditions: library round: Round 0
Protocol: as §1

Variant | sfGFP reporter fluorescence [1] | sfGFP reporter fluorescence ([2]; ligand: 1 µM Pb) | sfGFP reporter fluorescence ([2]; ligand: 30 µM Zn)
MNIAIGELAKRTACPVVTIRFYEQEGLLPPPGRSRGNFRLYGEEHVERLQFIRHCRSLDMPLSDVRTLLSYRKRPDQDCGEVNMLLDEHIRQVESRIGALLELKHHLVELREACSGARPAQSCGILQGLSDCVCDTRGTTAHPSD [Q4A] | 0.0537 ± 0.0044 | 0.0555 ± 0.0018 | 0.4821 ± 0.0029
MNWQIGELAKRTACPVVTIRFYEQEGLLPPPGRSRGNFRLYGEEHVERLQFIRHCRSLDMPLSDVRTLLSYRKRPDQDCGEVNMLLDEHIRQVESRIGALLELKHHLVELREACSGARPAQSCGILQGLSDCVCDTRGTTAHPSD [I3W] | 0.05919 ± 0.00026 | 0.0766 ± 0.001 | 0.957 ± 0.056
MNYQIGELAKRTACPVVTIRFYEQEGLLPPPGRSRGNFRLYGEEHVERLQFIRHCRSLDMPLSDVRTLLSYRKRPDQDCGEVNMLLDEHIRQVESRIGALLELKHHLVELREACSGARPAQSCGILQGLSDCVCDTRGTTAHPSD [I3Y] | 0.0612 ± 0.0021 | 0.06744 ± 0.00052 | 0.977 ± 0.061
MNIQIIELAKRTACPVVTIRFYEQEGLLPPPGRSRGNFRLYGEEHVERLQFIRHCRSLDMPLSDVRTLLSYRKRPDQDCGEVNMLLDEHIRQVESRIGALLELKHHLVELREACSGARPAQSCGILQGLSDCVCDTRGTTAHPSD [G6I] | 0.05846 ± 0.00026 | 0.0585 ± 0.0023 | 0.0618 ± 0.0018
MNIQICELAKRTACPVVTIRFYEQEGLLPPPGRSRGNFRLYGEEHVERLQFIRHCRSLDMPLSDVRTLLSYRKRPDQDCGEVNMLLDEHIRQVESRIGALLELKHHLVELREACSGARPAQSCGILQGLSDCVCDTRGTTAHPSD [G6C] | 0.0601 ± 0.0026 | 0.05882 ± 0.00026 | 0.0621 ± 0.0018
MNIQILELAKRTACPVVTIRFYEQEGLLPPPGRSRGNFRLYGEEHVERLQFIRHCRSLDMPLSDVRTLLSYRKRPDQDCGEVNMLLDEHIRQVESRIGALLELKHHLVELREACSGARPAQSCGILQGLSDCVCDTRGTTAHPSD [G6L] | 0.0607 ± 0.00078 | 0.06157 ± 0.00052 | 0.0682 ± 0.001
MNIQIEELAKRTACPVVTIRFYEQEGLLPPPGRSRGNFRLYGEEHVERLQFIRHCRSLDMPLSDVRTLLSYRKRPDQDCGEVNMLLDEHIRQVESRIGALLELKHHLVELREACSGARPAQSCGILQGLSDCVCDTRGTTAHPSD [G6E] | 0.0636 ± 0.0034 | 0.0605 ± 0.0015 | 0.0625 ± 0.0034
MNIQIDELAKRTACPVVTIRFYEQEGLLPPPGRSRGNFRLYGEEHVERLQFIRHCRSLDMPLSDVRTLLSYRKRPDQDCGEVNMLLDEHIRQVESRIGALLELKHHLVELREACSGARPAQSCGILQGLSDCVCDTRGTTAHPSD [G6D] | 0.06377 ± 0.00052 | 0.06047 ± 0.00052 | 0.0621 ± 0.00078
MNIQIKELAKRTACPVVTIRFYEQEGLLPPPGRSRGNFRLYGEEHVERLQFIRHCRSLDMPLSDVRTLLSYRKRPDQDCGEVNMLLDEHIRQVESRIGALLELKHHLVELREACSGARPAQSCGILQGLSDCVCDTRGTTAHPSD [G6K] | 0.0625 ± 0.0013 | 0.06414 ± 0.00052 | 0.222 ± 0.0031
MNIQIFELAKRTACPVVTIRFYEQEGLLPPPGRSRGNFRLYGEEHVERLQFIRHCRSLDMPLSDVRTLLSYRKRPDQDCGEVNMLLDEHIRQVESRIGALLELKHHLVELREACSGARPAQSCGILQGLSDCVCDTRGTTAHPSD [G6F] | 0.0592 ± 0.0018 | 0.06029 ± 0.00026 | 0.0629 ± 0.00078
MNIQIHELAKRTACPVVTIRFYEQEGLLPPPGRSRGNFRLYGEEHVERLQFIRHCRSLDMPLSDVRTLLSYRKRPDQDCGEVNMLLDEHIRQVESRIGALLELKHHLVELREACSGARPAQSCGILQGLSDCVCDTRGTTAHPSD [G6H] | 0.06267 ± 0.00052 | 0.0603 ± 0.00078 | 0.0698 ± 0.0029
MNIQIAELAKRTACPVVTIRFYEQEGLLPPPGRSRGNFRLYGEEHVERLQFIRHCRSLDMPLSDVRTLLSYRKRPDQDCGEVNMLLDEHIRQVESRIGALLELKHHLVELREACSGARPAQSCGILQGLSDCVCDTRGTTAHPSD [G6A] | 0.0504 ± 0.0018 | 0.0491 ± 0.00052 | 0.09016 ± 0.00052
MNIQIMELAKRTACPVVTIRFYEQEGLLPPPGRSRGNFRLYGEEHVERLQFIRHCRSLDMPLSDVRTLLSYRKRPDQDCGEVNMLLDEHIRQVESRIGALLELKHHLVELREACSGARPAQSCGILQGLSDCVCDTRGTTAHPSD [G6M] | 0.0603 ± 0.0013 | 0.0586 ± 0.001 | 0.0654 ± 0.0034
MNIQAGELAKRTACPVVTIRFYEQEGLLPPPGRSRGNFRLYGEEHVERLQFIRHCRSLDMPLSDVRTLLSYRKRPDQDCGEVNMLLDEHIRQVESRIGALLELKHHLVELREACSGARPAQSCGILQGLSDCVCDTRGTTAHPSD [I5A] | 0.0515 ± 0.0039 | 0.05186 ± 0.00026 | 0.0817 ± 0.0036
